Data set [1] concerns Wistar rat. The data set can be described thus: Blood pressure-lowering effect, single intravenous dose in rat under anesthesia. The class given is in vivo. As to conditions: 1 nmol/kg, single dose into the vein. How it is done:
Each compound prepared in experiments I-1 and II-1 or full-length AM was administered in a single dose of 1 nmol/kg into the vein of each rat under anesthesia, and change in the blood pressure of the rat was observed. Each 11 to 14-week-old male Wistar rat was anesthetized by the inhalation of isoflurane. After tracheotomy, inhalational anesthesia was controlled at an isoflurane concentration of 1.5 to 2.5% and a flow rate of 0.6 to 0.8 L/min. The right jugular vein was isolated from the rat, and a catheter tube corresponding to 26 G was inserted thereto. Next, the left carotid artery was isolated from the rat thus treated, and a catheter tube corresponding to 23 G was inserted thereto. From the catheter tube of the right jugular vein, a physiological saline-heparin solution (physiological saline: 100 mL; heparin: 1000 units) was infused at 2.4 mL/hr. […] The catheter inserted in the carotid artery was connected to a pressure transducer. […] In the diagram, the ordinate depicts a difference obtained by subtracting the average blood pressure before the administration of each drug from the average blood pressure at the time of the administration of each drug.

Data set [2] in a line: Measurement over time of AM concentration in plasma after subcutaneous administration (RIA). The class given is in vivo. The conditions noted are these: rat. The procedure: 1 day, 7 days and 10 days after the start of the administration, 50 mg of pentobarbital was intraperitoneally administered, and 300 μL of blood was collected each time from the tail vain under anesthesia. Immediately, 300 μg of EDTA-2Na and […] of aprotinin were added to the obtained blood sample, and the mixture was centrifuged under conditions involving 10 minutes and 3000 rpm to obtain plasma. The AM concentration in the plasma of each sample was measured by radioimmunoassay (RIA) (Kitamura K, Ichiki Y, Tanaka M et al., Immunoreactive adrenomedullin in human plasma. FEBS Lett., vol. 341, p. 288-90, 1994).
The compound (37) prepared in experiment III-1 was subcutaneously administered in a single dose of 30 nmol/kg to each rat, and time-dependent change in the concentration in blood of the adrenomedullin derivative was observed. The compound (37) dissolved in physiological saline was subcutaneously administered to each 7- to 8-week-old male Wistar rat (approximately 250 g). 1 day, 2 days, 4 days, 7 days and 9 days after the start of the administration, 50 mg of pentobarbital was intraperitoneally administered, and 300 μL of blood was collected each time from the tail vain under anesthesia. Immediately, 300 μg of EDTA-2Na and […] of aprotinin were added to the obtained blood sample, and the mixture was centrifuged under conditions involving 10 minutes and 3000 rpm to obtain plasma. The AM concentration in the plasma of each sample was measured by RIA.

In data set [3] the target is T1, AM receptor (Homo sapiens, UniProt O60895+Q16602).
T1 construct: expressed in transfected cells; host or cells: HEK293 cell line
The data set can be described thus: Intracellular cAMP concentration-increasing effect in HEK293 cell line caused to express an AM receptor.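 Note: cAMP inside confluent receptor-expressing cells quantified by ELISA after 15 min exposure to each peptide at 10^−8 mol/L alongside 0.5 mM IBMX.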 The class given is cell-based. As to conditions: 10^−8 mol/L, 15 minutes, 0.5 mM IBMX; percentage with respect to h.AM (1-52)-Gly.

The subject of data set [4] is spontaneously hypertensive rat (SHR). The data set can be described thus: Effect of suppressing increase in blood pressure in spontaneously hypertensive rat (SHR)-(2). The data set is classed as in vivo. As to conditions: 30 nmol/kg subcutaneous single dose, 4 days and 9 days after administration. The procedure:
The compound (37) prepared in experiment III-1 was subcutaneously administered in a single dose of 30 nmol/kg to each SHR, and the blood pressure increase-suppressing effect of the adrenomedullin derivative was observed. The compound (37) was administered in a form dissolved in physiological saline to each 8-week-old male SHR (approximately 200 g). […] of physiological saline was subcutaneously administered in a single dose to each male SHR (approximately 200 g) in the same condition as above in a control group. The blood pressure was measured over time (1 day before and 4 days and 9 days after the administration of the compound (37) or physiological saline). The values of change in the blood pressure obtained 4 days and 9 days after the administration of the compound (37) or physiological saline with respect to the average systolic blood pressure on the day before the administration are shown in FIG. 10.

The mark [5] stands for this setting: 10 nmol/kg subcutaneous single dose, 7 days later.

Marks after values point to notes of the source that are not given here.

T1 sequence (Q16602 23-461): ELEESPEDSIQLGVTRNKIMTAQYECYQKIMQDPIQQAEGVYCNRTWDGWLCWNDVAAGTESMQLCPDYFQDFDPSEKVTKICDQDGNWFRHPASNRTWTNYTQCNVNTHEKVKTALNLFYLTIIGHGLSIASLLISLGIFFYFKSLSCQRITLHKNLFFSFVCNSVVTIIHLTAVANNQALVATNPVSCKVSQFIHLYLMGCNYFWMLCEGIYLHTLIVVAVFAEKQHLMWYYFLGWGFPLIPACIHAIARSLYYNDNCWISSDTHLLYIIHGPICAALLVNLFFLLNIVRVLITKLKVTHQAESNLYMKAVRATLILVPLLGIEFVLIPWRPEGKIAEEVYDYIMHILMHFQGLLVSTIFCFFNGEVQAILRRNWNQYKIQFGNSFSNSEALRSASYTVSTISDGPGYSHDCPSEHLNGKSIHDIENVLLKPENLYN
T1 sequence (O60895 43-175): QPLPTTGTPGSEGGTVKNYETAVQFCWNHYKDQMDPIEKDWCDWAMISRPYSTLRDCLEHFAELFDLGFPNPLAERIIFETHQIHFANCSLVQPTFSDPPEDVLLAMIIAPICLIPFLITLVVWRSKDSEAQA

With `CC[C@H](C)[C@H](NC(=O)[C@H](CCC(N)=O)NC(=O)[C@H](Cc1c[nH]cn1)NC(=O)[C@H](C)NC(=O)[C@H](CC(C)C)NC(=O)[C@H](CCCCN)NC(=O)[C@H](CCC(N)=O)NC(=O)[C@@H](NC(=O)[C@@H](NC(=O)[C@@H]1CSSC[C@H](NC(=O)CNC(=O)[C@H](Cc2ccccc2)NC(=O)[C@H](CO)NC(=O)[C@H](CCCNC(=N)N)NC(=O)[C@H](CC(C)C)NC(=O)CNC(=O)[C@H](CCC(N)=O)NC(=O)[C@H](Cc2ccccc2)NC(=O)[C@H](CC(N)=O)NC(=O)[C@H](CC(N)=O)NC(=O)[C@H](CCSC)NC(=O)[C@H](CO)NC(=O)[C@H](CCC(N)=O)NC(=O)[C@H](CCCNC(=N)N)NC(=O)[C@@H](N)Cc2ccc(O)cc2)C(=O)N[C@@H](CCCNC(=N)N)C(=O)N[C@@H](Cc2ccccc2)C(=O)NCC(=O)N[C@@H]([C@@H](C)O)C(=O)N1)[C@@H](C)O)C(C)C)C(=O)N[C@@H](Cc1ccc(O)cc1)C(=O)N[C@@H](CCC(N)=O)C(=O)N[C@@H](Cc1ccccc1)C(=O)N[C@H](C(=O)N[C@@H](CC(=O)O)C(=O)N[C@@H](CCCCN)C(=O)N[C@@H](CC(=O)O)C(=O)N[C@@H](CCCCN)C(=O)N[C@@H](CC(=O)O)C(=O)N[C@@H](CC(N)=O)C(=O)N[C@H](C(=O)N[C@@H](C)C(=O)N1CCC[C@H]1C(=O)N[C@@H](CCCNC(=N)N)C(=O)N[C@@H](CO)C(=O)N[C@@H](CCCCN)C(=O)N[C@H](C(=O)N[C@@H](CO)C(=O)N1CCC[C@H]1C(=O)N[C@@H](CCC(N)=O)C(=O)NCC(=O)N[C@@H](Cc1ccc(O)cc1)C(N)=O)[C@@H](C)CC)C(C)C)[C@@H](C)O` [h.AM (1-52), reference compound], in data set [1], the “rapidly decreased blood pressure immediately after the administration” value is “rapidly decreased blood pressure was observed”. In addition, the level at time molar at 24 h in data set [2] (setting [5]) stood at 0 nM; in data set [2] (10 nmol/kg subcutaneous single dose, 10 days later), 0 nM; in data set [2] (male, Wistar, plasma, sc, 10 nmol/kg subcutaneous single dose, 1 day later), 0.0067 nM.
As for “CH3O-PEG (20k)-(CH2)2—CH2-^αNH-(h.AM (1-52)) [Compound (4)]”, in data set [1], the “decrease in the blood pressure immediately after the administration, as compared to compound (2)” value is recorded as “further suppressed” and the “rapidly decreased blood pressure immediately after the administration” value is reported as “not observed”.
Turning to “CH3O-PEG (20k)-(CH2)5—CO-^αNH-(h.AM (1-52)) [Compound (2), reference compound]”, the “rapidly decreased blood pressure immediately after the administration” value in data set [1] is on record as “not observed”.
Take “GL-2-branched CH3O-PEG (40k)-CO-^αNH-(h.AM (1-52)) [Compound (27)]”: the level at time molar at 24 h is at least 3.6 nM in data set [2] (10 nmol/kg subcutaneous single dose, 1 day later) and at least 0.12 nM in data set [2] (setting [5]).
For the compound “GL-2-branched CH3O-PEG (60k)-CH2-^αNH-(h.AM (1-52)-Gly) [Compound (37)]”, the “Intracellular cAMP concentration-increasing effect (%)” value in data set [3] was 91****^) %. In addition, the level at time molar at 24 h in data set [2] (30 nmol/kg subcutaneous single dose, 1 day later) was at least 34 nM; in data set [2] (30 nmol/kg subcutaneous single dose, 7 days later), at least 1.6 nM; in data set [2] (30 nmol/kg subcutaneous single dose, 9 days later), at least 0.11 nM. Also, the “increase in the blood pressure compared to the control group” value in data set [4] is recorded as “suppressed”.

Source of the values: US11478551B2, “Long-acting adrenomedullin derivative” (University of Miyazaki, priority 2015, dated 2022).
